According to patent publication US12698507B2, “Methods and compositions for conferring and/or enhancing herbicide tolerance using protoporphyrinogen IX oxidase of various cyanobacteria or variant thereof” (FarmHannong Co., Ltd., priority 2019, dated 2026):

Tested on: PPO-deficient BT3 E. coli (ΔPPO)
Test: PPO-inhibiting herbicide tolerance test of PPO variants in E. coli (growth on herbicide-containing LB agar)
Format: cell-based
Conditions: CyPPO19 variants in BT3 (ΔPPO) E. coli; LB agar with 0 to 2,000 μM herbicide, 37° C., dark, 16-20 hours
Summary of the method: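 PPO-deficient BT3 E. coli expressing each variant from pET303 were diluted to OD600=0.5, then 10-fold serially, and spotted on LB-ampicillin agar with 0 to 2,000 μM herbicide. After 16-20 h at 37° C. in the dark, growth relative to wild type was scored from '−' (equivalent) to '+' per 10-fold resistance, max '+++++'.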

Molecule | tolerance level relative to wild type, Carfentrazone | tolerance level relative to wild type, Flumioxazin | tolerance level relative to wild type, Fomesafen | tolerance level relative to wild type, Oxyfluorfen | tolerance level relative to wild type, Saflufenacil | tolerance level relative to wild type, Sulfentrazone | tolerance level relative to wild type, Tiafenacil
CyPPO19 A167I + F360L: variant of CyPPO19 PPO protein (SEQ ID NO: 1) (protein, Synthetic_PPO of Thermosynechococcus elongatus PKUAC-SCTE542 (comprising GenBank No. CP032152.1)) MSEVDVAIVGGGLSGLSLAWRLQQSAPQYSVVLLEASDRLGGNITTQTAEGFVWELGPNSFAPTPALLQLIAEVGLQSELIRGDRHLPRYIYWRGQLYPLQPTRPLALATSNLLSPWGKVRAALGALGFVPPYLGSGDESVNSFFRRHLGQEVAERLVAPFVSGVYIGDPQQLSAAAAFRRIAQLEKLGGGLIAGALHLRRQQAPKPKPPTSVQMRPGELGSFKEGLAALPRAIAQQLKAPIHLQTPVQEITPDPKGGYLLRSGEQTWRARSVVLATPAYQTAELVAPFQPAIARVLATIPYPTVACVVLAYPAGLGRSVRPGFGVLIPRSQGIRTLGTIWSSCLFPQRTPAGWQVFTSLIGGATDPDLASLSEEAIVQQVQQDLNRLLDLPAAKARLLGMKVWRRAIPQYMVGYPEQWQQVTHALSQTPGLFLCSNYAEGVALGDRVEHGNRTAAAVAAYLSGGQP | + (‘+’ per each 10-fold resistance) | +++ (‘+’ per each 10-fold resistance) | + (‘+’ per each 10-fold resistance) | + (‘+’ per each 10-fold resistance) | +++ (‘+’ per each 10-fold resistance) | + (‘+’ per each 10-fold resistance) | +++ (‘+’ per each 10-fold resistance)
CyPPO19 A167L + F360T: variant of CyPPO19 PPO protein (SEQ ID NO: 1) (protein, Synthetic_PPO of Thermosynechococcus elongatus PKUAC-SCTE542 (comprising GenBank No. CP032152.1)) MSEVDVAIVGGGLSGLSLAWRLQQSAPQYSVVLLEASDRLGGNITTQTAEGFVWELGPNSFAPTPALLQLIAEVGLQSELIRGDRHLPRYIYWRGQLYPLQPTRPLALATSNLLSPWGKVRAALGALGFVPPYLGSGDESVNSFFRRHLGQEVAERLVAPFVSGVYLGDPQQLSAAAAFRRIAQLEKLGGGLIAGALHLRRQQAPKPKPPTSVQMRPGELGSFKEGLAALPRAIAQQLKAPIHLQTPVQEITPDPKGGYLLRSGEQTWRARSVVLATPAYQTAELVAPFQPAIARVLATIPYPTVACVVLAYPAGLGRSVRPGFGVLIPRSQGIRTLGTIWSSCLFPQRTPAGWQVFTSTIGGATDPDLASLSEEAIVQQVQQDLNRLLDLPAAKARLLGMKVWRRAIPQYMVGYPEQWQQVTHALSQTPGLFLCSNYAEGVALGDRVEHGNRTAAAVAAYLSGGQP | + (‘+’ per each 10-fold resistance) | +++ (‘+’ per each 10-fold resistance) | + (‘+’ per each 10-fold resistance) | + (‘+’ per each 10-fold resistance) | +++ (‘+’ per each 10-fold resistance) | ++ (‘+’ per each 10-fold resistance) | +++ (‘+’ per each 10-fold resistance)
CyPPO19 A167C + F360M: variant of CyPPO19 PPO protein (SEQ ID NO: 1) (protein, Synthetic_PPO of Thermosynechococcus elongatus PKUAC-SCTE542 (comprising GenBank No. CP032152.1)) MSEVDVAIVGGGLSGLSLAWRLQQSAPQYSVVLLEASDRLGGNITTQTAEGFVWELGPNSFAPTPALLQLIAEVGLQSELIRGDRHLPRYIYWRGQLYPLQPTRPLALATSNLLSPWGKVRAALGALGFVPPYLGSGDESVNSFFRRHLGQEVAERLVAPFVSGVYCGDPQQLSAAAAFRRIAQLEKLGGGLIAGALHLRRQQAPKPKPPTSVQMRPGELGSFKEGLAALPRAIAQQLKAPIHLQTPVQEITPDPKGGYLLRSGEQTWRARSVVLATPAYQTAELVAPFQPAIARVLATIPYPTVACVVLAYPAGLGRSVRPGFGVLIPRSQGIRTLGTIWSSCLFPQRTPAGWQVFTSMIGGATDPDLASLSEEAIVQQVQQDLNRLLDLPAAKARLLGMKVWRRAIPQYMVGYPEQWQQVTHALSQTPGLFLCSNYAEGVALGDRVEHGNRTAAAVAAYLSGGQP | + (‘+’ per each 10-fold resistance) | ++++ (‘+’ per each 10-fold resistance) | + (‘+’ per each 10-fold resistance) | ++ (‘+’ per each 10-fold resistance) | ++++ (‘+’ per each 10-fold resistance) | + (‘+’ per each 10-fold resistance) | ++++ (‘+’ per each 10-fold resistance)
CyPPO19 A167C + F360L: variant of CyPPO19 PPO protein (SEQ ID NO: 1) (protein, Synthetic_PPO of Thermosynechococcus elongatus PKUAC-SCTE542 (comprising GenBank No. CP032152.1)) MSEVDVAIVGGGLSGLSLAWRLQQSAPQYSVVLLEASDRLGGNITTQTAEGFVWELGPNSFAPTPALLQLIAEVGLQSELIRGDRHLPRYIYWRGQLYPLQPTRPLALATSNLLSPWGKVRAALGALGFVPPYLGSGDESVNSFFRRHLGQEVAERLVAPFVSGVYCGDPQQLSAAAAFRRIAQLEKLGGGLIAGALHLRRQQAPKPKPPTSVQMRPGELGSFKEGLAALPRAIAQQLKAPIHLQTPVQEITPDPKGGYLLRSGEQTWRARSVVLATPAYQTAELVAPFQPAIARVLATIPYPTVACVVLAYPAGLGRSVRPGFGVLIPRSQGIRTLGTIWSSCLFPQRTPAGWQVFTSLIGGATDPDLASLSEEAIVQQVQQDLNRLLDLPAAKARLLGMKVWRRAIPQYMVGYPEQWQQVTHALSQTPGLFLCSNYAEGVALGDRVEHGNRTAAAVAAYLSGGQP | + (‘+’ per each 10-fold resistance) | +++ (‘+’ per each 10-fold resistance) | + (‘+’ per each 10-fold resistance) | + (‘+’ per each 10-fold resistance) | +++ (‘+’ per each 10-fold resistance) | + (‘+’ per each 10-fold resistance) | +++ (‘+’ per each 10-fold resistance)
CyPPO19 A167C + F360V: variant of CyPPO19 PPO protein (SEQ ID NO: 1) (protein, Synthetic_PPO of Thermosynechococcus elongatus PKUAC-SCTE542 (comprising GenBank No. CP032152.1)) MSEVDVAIVGGGLSGLSLAWRLQQSAPQYSVVLLEASDRLGGNITTQTAEGFVWELGPNSFAPTPALLQLIAEVGLQSELIRGDRHLPRYIYWRGQLYPLQPTRPLALATSNLLSPWGKVRAALGALGFVPPYLGSGDESVNSFFRRHLGQEVAERLVAPFVSGVYCGDPQQLSAAAAFRRIAQLEKLGGGLIAGALHLRRQQAPKPKPPTSVQMRPGELGSFKEGLAALPRAIAQQLKAPIHLQTPVQEITPDPKGGYLLRSGEQTWRARSVVLATPAYQTAELVAPFQPAIARVLATIPYPTVACVVLAYPAGLGRSVRPGFGVLIPRSQGIRTLGTIWSSCLFPQRTPAGWQVFTSVIGGATDPDLASLSEEAIVQQVQQDLNRLLDLPAAKARLLGMKVWRRAIPQYMVGYPEQWQQVTHALSQTPGLFLCSNYAEGVALGDRVEHGNRTAAAVAAYLSGGQP | + (‘+’ per each 10-fold resistance) | +++ (‘+’ per each 10-fold resistance) | + (‘+’ per each 10-fold resistance) | + (‘+’ per each 10-fold resistance) | +++ (‘+’ per each 10-fold resistance) | + (‘+’ per each 10-fold resistance) | ++++ (‘+’ per each 10-fold resistance)
CyPPO19 V305M + F360I: variant of CyPPO19 PPO protein (SEQ ID NO: 1) (protein, Synthetic_PPO of Thermosynechococcus elongatus PKUAC-SCTE542 (comprising GenBank No. CP032152.1)) MSEVDVAIVGGGLSGLSLAWRLQQSAPQYSVVLLEASDRLGGNITTQTAEGFVWELGPNSFAPTPALLQLIAEVGLQSELIRGDRHLPRYIYWRGQLYPLQPTRPLALATSNLLSPWGKVRAALGALGFVPPYLGSGDESVNSFFRRHLGQEVAERLVAPFVSGVYAGDPQQLSAAAAFRRIAQLEKLGGGLIAGALHLRRQQAPKPKPPTSVQMRPGELGSFKEGLAALPRAIAQQLKAPIHLQTPVQEITPDPKGGYLLRSGEQTWRARSVVLATPAYQTAELVAPFQPAIARVLATIPYPTMACVVLAYPAGLGRSVRPGFGVLIPRSQGIRTLGTIWSSCLFPQRTPAGWQVFTSIIGGATDPDLASLSEEAIVQQVQQDLNRLLDLPAAKARLLGMKVWRRAIPQYMVGYPEQWQQVTHALSQTPGLFLCSNYAEGVALGDRVEHGNRTAAAVAAYLSGGQP | + (‘+’ per each 10-fold resistance) | ++++ (‘+’ per each 10-fold resistance) | + (‘+’ per each 10-fold resistance) | + (‘+’ per each 10-fold resistance) | ++++ (‘+’ per each 10-fold resistance) | ++ (‘+’ per each 10-fold resistance) | ++++ (‘+’ per each 10-fold resistance)
